Reference: paper PMC4227767, “Dye label interference with RNA modification reveals 5-fluorouridine as non-covalent inhibitor”

T1: TruB (tmTruB), tRNA pseudouridine-55 synthase (Thermotoga maritima, UniProt Q9WZW0 1-309)
T1 sequence: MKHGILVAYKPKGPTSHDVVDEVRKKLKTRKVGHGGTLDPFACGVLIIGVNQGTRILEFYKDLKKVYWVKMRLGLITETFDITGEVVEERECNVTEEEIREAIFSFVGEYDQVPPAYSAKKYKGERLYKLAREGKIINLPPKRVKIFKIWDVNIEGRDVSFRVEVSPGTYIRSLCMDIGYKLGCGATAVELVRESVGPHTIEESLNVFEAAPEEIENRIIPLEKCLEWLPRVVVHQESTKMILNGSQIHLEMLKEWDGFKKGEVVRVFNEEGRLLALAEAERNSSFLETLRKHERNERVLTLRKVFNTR


Tests used:
[1] = biological target: T1, TruB (tmTruB), tRNA pseudouridine-55 …; assay: fluorescence titration (spectral shifts, lifetime/anisotropy); average over three titration curves; 200 nM tRNA; 1x MST buffer (composition not in material); tRNA folded 4 min 75 C in water then cooled in buffer; MST at 25 C, 50 nM tRNA; fluorescence at 200 nM tRNA; SDS-PAGE complexes formed at 25 or 70 C; conditions: protein: recombinant, tRNA fold
[2] = biological target: T1, TruB (tmTruB), tRNA pseudouridine-55 …; assay: MST; one of three runs 1 month apart; unit cut off in the material (nM assumed); 1x MST buffer (composition not in material); tRNA folded 4 min 75 C in water then cooled in buffer; MST at 25 C, 50 nM tRNA; fluorescence at 200 nM tRNA; SDS-PAGE complexes formed at 25 or 70 C; conditions: protein: recombinant; label: Cy5 at U33 (internal); tRNA fold

Binder	Kd ([1]; label: Cy5 at C49 (internal))	Kd [2]	Kd ([1]; label: Cy5 at U33 (internal))
C49-5FU55-tRNA (Cy5 at C49) (structured_RNA, 5-fluorouridine at position 55; 5-aminohexyl-3-acrylimido-deoxycytidine at C49) RNA: GCGGAUUUAGCUCAGUUGGGAGAGCGCCAGACUGAAGAUCUGGAGGUCCUGUGUUCGAUCCACAGAAUUCGCACCA	124 nM		
U33-5FU55-tRNA (Cy5 at U33) (structured_RNA, 5-fluorouridine at position 55; 5-aminohexyl-3-acrylimido-uridine at U33) RNA: GCGGAUUUAGCUCAGUUGGGAGAGCGCCAGACUGAAGAUCUGGAGGUCCUGUGUUCGAUCCACAGAAUUCGCACCA		37.3 nM	3.7 nM
C49-U55-tRNA (Cy5 at C49) (structured_RNA, 5-aminohexyl-3-acrylimido-deoxycytidine at C49) RNA: GCGGAUUUAGCUCAGUUGGGAGAGCGCCAGACUGAAGAUCUGGAGGUCCUGUGUUCGAUCCACAGAAUUCGCACCA	226 nM		
